Data set [1] has as its system GGhyrfk-amide (synthetic). Particulars: Cu complex; Vmax 2.86 RFU/min.
In data set [2] the test system is GGHYrFK-amide (synthetic). Kind of data set: cleavage_in_vitro. Particulars: Cu complex; KM 0.85 µM; turnover number 32; 1 mM ascorbate, 1 mM H2O2.
For data set [3], the system named is GGHYrFK-amide (synthetic).

By Kd is commonly meant the concentration at which binding is half-saturated. Low readings indicate a tighter complex, high ones a looser complex. Consider “GGCAGAAAGCGUCUAGCCAUGGCGUUAGUAUGCC [HCV IRES SL IIb RNA]”, for which the values for the Kd in data set [1] and in data set [3] were 6.09 µM and 0.044 µM, respectively. Further, the activity in data set [2] is 0.53 min-1 (kcat).

Source of the values: patent US20120289454.
